Assay results: paper PMC6161111, “Design, Synthesis, In Vitro, and Initial In Vivo Evaluation of Heterobivalent Peptidic Ligands Targeting Both NPY(Y1)- and GRP-Receptors—An Improvement for Breast Cancer Imaging?” (Pharmaceuticals, 2018)
*1 amine or outer side, *2 acyl side, *3 side chain or, on linkers, in order; H or OH if unused. Where a SMILES comes first, the peptide text is derived from it. Bridges are numbered along the chain shown (N, C = ends). Roman numbers before positions name the chains, in order. [ ]: non-standard residue; d: D form. The star is where a group is joined. X1 = NC(=O)[C@H](CCCCNC(=O)CCC(C(=O)O)N1CCN(CC(=O)O)CCN(CC(=O)O)CC1)NC(=O)CCOCCOCCOCCOCCNC(=O)CN(CCCNC(=O)CCOCCOCCOCCOCCNC(=O)c1ccc(C=NOCC(=O)NCCOCCOCCOCCOCCC(=O)[*:2])cc1)CCCNC(=O)CCOCCOCCOCCOCCNC(=O)c1ccc(C=NOCC(=O)[*:1])cc1; DOTA = O=C(O)CN1CCN(CC(=O)O)CCN(CC(=O)*)CCN(CC(=O)O)CC1; Nle = CCCC[C@H](N)C(=O)O

Legend:
[1] = Determination of radiotracer lipophilicity (logD, phosphate buffer/1-octanol); type: physicochemical; settings: phosphate buffer (0.05 M, pH 7.4) / 1-octanol, six independent experiments
Protocol: Determination of radiotracer lipophilicity. The heterobivalent ligands (22–26) as well as the monomeric reference compounds (27 and 28) were radiolabeled with ^68Ga as described before and 2 µL of the product solution (~65 pmol of the respective radioligand) were added to a mixture of phosphate buffer (0.05 M, pH 7.4, 800 µL) and 1-octanol (800 µL) and incubated for 5 min at ambient temperature under vigorous shaking. Both phases were separated by centrifugation and 100 µL of each phase were measured for radioactivity in a gamma-counter. […] (cpm = counts per minute), cpmw = activity in the aqueous phase [cpm]. These experiments were performed six times independently.

[2] = test system: T-47D cells; assay: In vitro cell uptake (internalization) study in T-47D cells; type: cell-based, human; settings: after 4 h, % of total added activity
Protocol: Cell culture. All cell lines were grown in suitable culture medium at 37 °C in a humidified CO2 (5%) atmosphere. The human breast cancer cell lines T-47D, MDA-MB-231 and MCF-7 were grown in Dulbecco’s Modified Eagle Medium (DMEM), supplemented with 10% (v/v) fetal calf serum (FCS) and 1% (v/v) L-Glutamine. For a high expression of the NPY(Y1) receptor on T-47D cells, the medium for this cell line was further supplemented with 0.15% (w/v) β-estradiol. The BT-474 and PC-3 cell lines were grown in RPMI-1640 medium, also supplemented with 10% (v/v) fetal calf serum (FCS) and 1% (v/v) L-Glutamine.
Internalization studies. Cells (T-47D, MDA-MB-231, MCF-7, BT-474 and PC-3, 1.5 × 10^6 cells per well) were seeded into 6-well plates and incubated overnight at 37 °C in a humidified CO2 (5%) atmosphere. The next day, the medium was removed and the cells were washed twice with the respective medium without supplements (ice-cold, 1 mL) and incubated with 3.7–4.0 kBq (0.37–4.0 pmol) of the respective ^68Ga-radiolabeled ligand [^68Ga]22−[^68Ga]26, [^68Ga]27 or [^68Ga]28 (in 1.5 mL medium, containing 0.5% (w/v) BSA) for defined time-points of 1, 2, 3 or 4 h at 37 °C in a humidified CO2 (5%) atmosphere. A 1000-fold excess of the respective peptide (3 or 4) was used for blocking to determine the non-specific cell uptake. At each time point, the medium was removed and the cells were washed twice with the respective medium without supplements (ice-cold, 1 mL). Cells were treated twice with 1 mL glycine buffer (ice-cold, 50 mM glycine, 100 mM NaCl, pH 2.8) for 5 min at room temperature, followed by 2 mL NaOH solution (1 M) for 10 min at 37 °C. The supernatants were collected and the radioactivity measured in a gamma counter. The internalized and surface bound activity was expressed as percentage of measured to total added activity. Each data point was generated thrice in triplicates.

[3] = Ex vivo biodistribution in T-47D tumor-bearing mice; settings: female, Fox Chase SCID (CB17/Icr-Prkdc^scid/IcrIcoCrl), mouse, in vivo, iv, total radioactivity
Protocol: (§1) In vivo experiments. All animal experiments were performed in compliance with the German animal protection laws and protocols of the local committee (Regierungspräsidium Karlsruhe, approval number: 35-9185.81/G-206/15). 20, six week old female immunodeficient Fox Chase SCID (CB17/Icr-Prkdc^scid/IcrIcoCrl) mice with an average weight of 20 g were subcutaneously implanted with 17β-estradiol pellets (0.36 mg/60 days). 4 days later, the tumors were induced by subcutaneous inoculation of 5 × 10^6 T-47D cells into the left flank of the […]. After induction, the tumors were allowed to grow for 8–10 weeks and reached a diameter of about 0.5 cm. For imaging, the animals were anaesthetized with isoflurane and injected with 5.5–8.0 MBq of the respective radioligand ([^68Ga]24, [^68Ga]24a or [^68Ga]24b) into the lateral tail vein. Dynamic PET images were acquired over 90 min and CT images were obtained within further 30 min. After the end of the diagnostic scan, the animals were sacrificed, the organs were collected and measured in a gamma-counter.

[4] = test system: T-47D tumor-bearing mice; assay: as above; settings: mouse, in vivo
Protocol: as §1

CCCC[C@H](NC(=O)[C@H](CCCNC(=N)N)NC(=O)[C@H](Cc1c[nH]c2ccccc12)NC(=O)[C@H](CCCCNC(=O)CON=Cc1ccc(C(=O)NCCCN(CCCNC(=O)c2ccc(C=NOCC(=O)NCCOCCOCCOCCOCCC(=O)N[C@@H](CCC(N)=O)C(=O)N[C@@H](Cc3c[nH]c4ccccc34)C(=O)N[C@@H](C)C(=O)N[C@H](C(=O)NCC(=O)N[C@@H](Cc3c[nH]cn3)C(=O)N[C@@H](CC(C)C)C(=O)N[C@@H](CCSC)C(N)=O)C(C)C)cc2)CC(=O)NCCOCCOCCOCCOCCC(=O)N[C@@H](CCCCNC(=O)CCC(C(=O)O)N2CCN(CC(=O)O)CCN(CC(=O)O)CC2)C(N)=O)cc1)NC(=O)[C@@H]1CCCN1C(=O)[C@H](CC(N)=O)NC(=O)[C@@H](N)[C@@H](C)CC)C(=O)N[C@@H](CCCNC(=N)N)C(=O)N[C@@H](Cc1ccc(O)cc1)C(N)=O (some centres unmarked) [[^68Ga]22, metal not drawn]
logD [1]: -1.57 ± 0.111 | specific cell uptake [2]: 47.8 ± 6.5%

CCCC[C@H](NC(=O)[C@H](CCCNC(=N)N)NC(=O)[C@H](Cc1c[nH]c2ccccc12)NC(=O)[C@H](CCCCNC(=O)CON=Cc1ccc(C(=O)NCCOCCOCC(=O)NCCCN(CCCNC(=O)COCCOCCNC(=O)c2ccc(C=NOCC(=O)NCCOCCOCCOCCOCCC(=O)N[C@@H](CCC(N)=O)C(=O)N[C@@H](Cc3c[nH]c4ccccc34)C(=O)N[C@@H](C)C(=O)N[C@H](C(=O)NCC(=O)N[C@@H](Cc3c[nH]cn3)C(=O)N[C@@H](CC(C)C)C(=O)N[C@@H](CCSC)C(N)=O)C(C)C)cc2)CC(=O)NCCOCCOCCOCCOCCC(=O)N[C@@H](CCCCNC(=O)CCC(C(=O)O)N2CCN(CC(=O)O)CCN(CC(=O)O)CC2)C(N)=O)cc1)NC(=O)[C@@H]1CCCN1C(=O)[C@H](CC(N)=O)NC(=O)[C@@H](N)[C@@H](C)CC)C(=O)N[C@@H](CCCNC(=N)N)C(=O)N[C@@H](Cc1ccc(O)cc1)C(N)=O (some centres unmarked) [[^68Ga]23, metal not drawn]
logD [1]: -1.53 ± 0.109 | specific cell uptake [2]: 45.8 ± 2.9%

CCCC[C@H](NC(=O)[C@H](CCCNC(=N)N)NC(=O)[C@H](Cc1c[nH]c2ccccc12)NC(=O)[C@H](CCCCNC(=O)CON=Cc1ccc(C(=O)NCCOCCOCCOCCOCCC(=O)NCCCN(CCCNC(=O)CCOCCOCCOCCOCCNC(=O)c2ccc(C=NOCC(=O)NCCOCCOCCOCCOCCC(=O)NCC(=O)N[C@@H](CC(C)C)C(=O)N[C@@H](Cc3c[nH]cn3)C(=O)N[C@H](C(=O)N[C@@H](CCSC)C(=O)N[C@@H](Cc3c[nH]c4ccccc34)C(=O)N[C@@H](CCC(N)=O)C(=O)N[C@@H](C)C(N)=O)C(C)C)cc2)CC(=O)NCCOCCOCCOCCOCCC(=O)N[C@@H](CCCCNC(=O)CCC(C(=O)O)N2CCN(CC(=O)O)CCN(CC(=O)O)CC2)C(N)=O)cc1)NC(=O)[C@@H]1CCCN1C(=O)[C@H](CC(N)=O)NC(=O)[C@@H](N)[C@@H](C)CC)C(=O)N[C@@H](CCCNC(=N)N)C(=O)N[C@@H](Cc1ccc(O)cc1)C(N)=O (some centres unmarked) [[^68Ga]24a, metal not drawn] (I: H-INPKWR[Nle]RY-NH2 / II: GLHVMWQA-NH2; linker I:4-II:N via X1)
tissue to tissue ratio at 130 min ([3]; tumor-to-blood ratio (T / B)): 0.5 ± 0.47 | tissue to tissue ratio at 130 min ([3]; tumor-to-muscle ratio (T / M)): 1.07 ± 1.14 | adrenal glands uptake [4]: 0.74 ± 0.40 ID/g in % | blood uptake [4]: 0.39 ± 0.37 ID/g in % | bone uptake [4]: 0.13 ± 0.08 ID/g in % | brain uptake [4]: 0.03 ± 0.02 ID/g in % | heart uptake [4]: 0.18 ± 0.14 ID/g in % | kidneys uptake [4]: 29.72 ± 10.33 ID/g in % | large intestines uptake [4]: 0.24 ± 0.19 ID/g in % | liver uptake [4]: 5.54 ± 0.31 ID/g in % | lung uptake [4]: 0.28 ± 0.04 ID/g in % | muscle uptake [4]: 0.26 ± 0.40 ID/g in % | pancreas uptake [4]: 0.15 ± 0.08 ID/g in % | small intestines uptake [4]: 0.43 ± 0.37 ID/g in % | spleen uptake [4]: 0.49 ± 0.14 ID/g in % | stomach uptake [4]: 0.39 ± 0.41 ID/g in % | tail uptake [4]: 0.46 ± 0.41 ID/g in % | tumor uptake [4]: 0.21 ± 0.15 ID/g in %

CCCC[C@H](NC(=O)[C@H](CCCCNC(=O)CON=Cc1ccc(C(=O)NCCOCCOCCOCCOCCC(=O)NCCCN(CCCNC(=O)CCOCCOCCOCCOCCNC(=O)c2ccc(C=NOCC(=O)NCCOCCOCCOCCOCCC(=O)N[C@@H](CCC(N)=O)C(=O)N[C@@H](Cc3c[nH]c4ccccc34)C(=O)N[C@@H](C)C(=O)N[C@H](C(=O)NCC(=O)N[C@@H](Cc3c[nH]cn3)C(=O)N[C@@H](CC(C)C)C(=O)N[C@@H](CCSC)C(N)=O)C(C)C)cc2)CC(=O)NCCOCCOCCOCCOCCC(=O)N[C@@H](CCCCNC(=O)CCC(C(=O)O)N2CCN(CC(=O)O)CCN(CC(=O)O)CC2)C(N)=O)cc1)NC(=O)[C@H](CC(N)=O)NC(=O)[C@H](Cc1ccc(O)cc1)NC(=O)[C@@H]1CCCN1)C(=O)N[C@@H](CCCNC(=N)N)C(=O)N[C@@H](CCCNC(=N)N)C(=O)N[C@@H](Cc1c[nH]c2ccccc12)C(=O)N[C@H](C(N)=O)[C@@H](C)CC (some centres unmarked) [[^68Ga]24b, metal not drawn]
tissue to tissue ratio at 130 min ([3]; tumor-to-blood ratio (T / B)): 0.91 ± 0.24 | tissue to tissue ratio at 130 min ([3]; tumor-to-muscle ratio (T / M)): 3.83 ± 0.8 | adrenal glands uptake [4]: 2.91 ± 1.13 ID/g in % | blood uptake [4]: 2.02 ± 1.34 ID/g in % | bone uptake [4]: 0.43 ± 0.23 ID/g in % | brain uptake [4]: 0.07 ± 0.04 ID/g in % | heart uptake [4]: 0.85 ± 0.52 ID/g in % | kidneys uptake [4]: 43.84 ± 25.05 ID/g in % | large intestines uptake [4]: 1.71 ± 0.69 ID/g in % | liver uptake [4]: 16.75 ± 0.85 ID/g in % | lung uptake [4]: 0.88 ± 0.07 ID/g in % | muscle uptake [4]: 0.48 ± 0.40 ID/g in % | pancreas uptake [4]: 8.30 ± 5.33 ID/g in % | small intestines uptake [4]: 1.53 ± 0.51 ID/g in % | spleen uptake [4]: 2.12 ± 0.49 ID/g in % | stomach uptake [4]: 1.35 ± 0.43 ID/g in % | tail uptake [4]: 1.64 ± 0.94 ID/g in % | tumor uptake [4]: 1.84 ± 0.32 ID/g in %

CCCC[C@H](NC(=O)[C@H](CCCNC(=N)N)NC(=O)[C@H](Cc1c[nH]c2ccccc12)NC(=O)[C@H](CCCCNC(=O)CON=Cc1ccc(C(=O)NC2CCN(CC(=O)NCCCN(CCCNC(=O)CN3CCC(NC(=O)c4ccc(C=NOCC(=O)NCCOCCOCCOCCOCCC(=O)N[C@@H](CCC(N)=O)C(=O)N[C@@H](Cc5c[nH]c6ccccc56)C(=O)N[C@@H](C)C(=O)N[C@H](C(=O)NCC(=O)N[C@@H](Cc5c[nH]cn5)C(=O)N[C@@H](CC(C)C)C(=O)N[C@@H](CCSC)C(N)=O)C(C)C)cc4)CC3)CC(=O)NCCOCCOCCOCCOCCC(=O)N[C@@H](CCCCNC(=O)CCC(C(=O)O)N3CCN(CC(=O)O)CCN(CC(=O)O)CC3)C(N)=O)CC2)cc1)NC(=O)[C@@H]1CCCN1C(=O)[C@H](CC(N)=O)NC(=O)[C@@H](N)[C@@H](C)CC)C(=O)N[C@@H](CCCNC(=N)N)C(=O)N[C@@H](Cc1ccc(O)cc1)C(N)=O (some centres unmarked) [[^68Ga]25, metal not drawn]
logD [1]: -1.55 ± 0.114 | specific cell uptake [2]: 48.2 ± 2.8%

CSCC[C@H](NC(=O)[C@H](CC(C)C)NC(=O)[C@H](Cc1c[nH]cn1)NC(=O)CNC(=O)[C@@H](NC(=O)[C@H](C)NC(=O)[C@H](Cc1c[nH]c2ccccc12)NC(=O)[C@H](CCC(N)=O)NC(=O)CCOCCOCCOCCOCCNC(=O)CN1CCN(CC(=O)O)CCN(CC(=O)O)CCN(CC(=O)O)CC1)C(C)C)C(N)=O [[^68Ga]27, metal not drawn, reference compound]
logD [1]: -1.86 ± 0.054

CCCC[C@H](NC(=O)[C@H](CCCNC(=N)N)NC(=O)[C@H](Cc1c[nH]c2ccccc12)NC(=O)[C@H](CCCCNC(=O)CN1CCN(CC(=O)O)CCN(CC(=O)O)CCN(CC(=O)O)CC1)NC(=O)[C@@H]1CCCN1C(=O)[C@H](CC(N)=O)NC(=O)[C@@H](N)[C@@H](C)CC)C(=O)N[C@@H](CCCNC(=N)N)C(=O)N[C@@H](Cc1ccc(O)cc1)C(N)=O [[^68Ga]28, metal not drawn, reference compound] (H-INPK(DOTA)WR[Nle]RY-NH2)
logD [1]: -1.98 ± 0.162
